Assay results reported in patent publication US20170002055A1, “Novel peptides and combination of peptides for use in immunotherapy against ovarian cancer and other cancers” (immatics biotechnologies GmbH, priority 2015, published 2017).

Biological target: HLA-A*02:01 (Homo sapiens, UniProt P04439, D140Y/D185E/D98H/E176V/E277Q/G131W/G231S/I119V/I121R/I166T/I218V/L300P/L318F/N151K/N90K/P208A/P217A/Q86G/Q94H/R138H/R169H/T345S)
Assay: MHC binding assay (UV-ligand exchange, β2m ELISA, peptide exchange yield)
Conditions: MHC class I binding score; binding to HLA-A*02:01 ranged by peptide exchange yield (UV-ligand exchange, β2m ELISA)
How it was run: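 Binding is expressed as peptide exchange yield: stabilized MHC complexes were quantified by β2m ELISA, with a 450 nm TMB read-out on streptavidin-coated plates. Complexes came from UV-ligand exchange, where UV irradiation cleaves a photolabile peptide so the candidate peptide can load.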

Row | Peptide exchange | Substance
1 | “+++” (≧50 = +++) | 256 (FLPPEHTIVYI; listed as Homo sapiens) [compound 256]
2 | “+++” (≧50 = +++) | 257 (SIFSAFLSV; listed as Homo sapiens) [compound 257]
3 | “++” (≧20% = ++) | 258 (ELAERVPAI; listed as Homo sapiens) [compound 258]
4 | “++” (≧20% = ++) | 261 (YVLEFLEEI; listed as Homo sapiens) [compound 261]
5 | “+++” (≧50 = +++) | 262 (LLWGDLIWL; listed as Homo sapiens) [compound 262]
6 | “+++” (≧50 = +++) | 263 (LLVSNLDFGV; listed as Homo sapiens) [compound 263]
7 | “+++” (≧50 = +++) | 264 (SLQEQLHSV; listed as Homo sapiens) [compound 264]
8 | “++” (≧20% = ++) | 265 (LLFGGTKTV; listed as Homo sapiens) [compound 265]
9 | “+++” (≧50 = +++) | 266 (KITDTLIHL; listed as Homo sapiens) [compound 266]
10 | “+++” (≧50 = +++) | 267 (ALQDFLLSV; listed as Homo sapiens) [compound 267]
11 | “++” (≧20% = ++) | 269 (RVLEVGALQAV; listed as Homo sapiens) [compound 269]
12 | “++” (≧20% = ++) | 270 (LLLDEEGTFSL; listed as Homo sapiens) [compound 270]
13 | “+++” (≧50 = +++) | 271 (LVYPLELYPA; listed as Homo sapiens) [compound 271]
14 | “+++” (≧50 = +++) | 272 (ALGNTVPAV; listed as Homo sapiens) [compound 272]
15 | “++” (≧20% = ++) | 273 (NLFQSVREV; listed as Homo sapiens) [compound 273]
16 | “++” (≧20% = ++) | 274 (SLLFSLFEA; listed as Homo sapiens) [compound 274]
17 | “++” (≧20% = ++) | 275 (YLVYILNEL; listed as Homo sapiens) [compound 275]
18 | “+++” (≧50 = +++) | 276 (ALFTFSPLTV; listed as Homo sapiens) [compound 276]
19 | “++” (≧20% = ++) | 277 (LLPPLESLATV; listed as Homo sapiens) [compound 277]
20 | “++” (≧20% = ++) | 278 (QLLDVVLTI; listed as Homo sapiens) [compound 278]
21 | “++” (≧20% = ++) | 279 (ALWGGTQPLL; listed as Homo sapiens) [compound 279]
22 | “+++” (≧50 = +++) | 280 (VLPDPEVLEAV; listed as Homo sapiens) [compound 280]
23 | “+++” (≧50 = +++) | 281 (ILRESTEEL; listed as Homo sapiens) [compound 281]
24 | “+++” (≧50 = +++) | 282 (LLADVVPTT; listed as Homo sapiens) [compound 282]
25 | “+++” (≧50 = +++) | 284 (ILLSQTTGV; listed as Homo sapiens) [compound 284]
26 | “+++” (≧50 = +++) | 285 (QLLHVGVTV; listed as Homo sapiens) [compound 285]

Row | Peptide exchange | Substance
27 | “+++” (≧50 = +++) | 286 (YLFPGIPEL; listed as Homo sapiens) [compound 286]
28 | “+++” (≧50 = +++) | 287 (FLNEFFLNV; listed as Homo sapiens) [compound 287]
29 | “+++” (≧50 = +++) | 288 (NLINEINGV; listed as Homo sapiens) [compound 288]
30 | “++++” (≧75% = ++++) | 289 (VLLEIEDLQV; listed as Homo sapiens) [compound 289]
31 | “+++” (≧50 = +++) | 295 (VLDRESPNV; listed as Homo sapiens) [compound 295]
32 | “+++” (≧50 = +++) | 296 (FMEGAIIYV; listed as Homo sapiens) [compound 296]
33 | “+++” (≧50 = +++) | 297 (VLADIELAQA; listed as Homo sapiens) [compound 297]
34 | “+++” (≧50 = +++) | 298 (VMITKLVEV; listed as Homo sapiens) [compound 298]
35 | “+++” (≧50 = +++) | 299 (YLLETSGNL; listed as Homo sapiens) [compound 299]
36 | “+++” (≧50 = +++) | 300 (ALLGQTFSL; listed as Homo sapiens) [compound 300]
37 | “+++” (≧50 = +++) | 301 (FLVEDLVDSL; listed as Homo sapiens) [compound 301]
38 | “+++” (≧50 = +++) | 302 (ALLQEGEVYSA; listed as Homo sapiens) [compound 302]
39 | “++++” (≧75% = ++++) | 303 (AILPQLFMV; listed as Homo sapiens) [compound 303]
40 | “+++” (≧50 = +++) | 304 (MTLGQIYYL; listed as Homo sapiens) [compound 304]
41 | “++++” (≧75% = ++++) | 305 (SIANFSEFYV; listed as Homo sapiens) [compound 305]
42 | “+++” (≧50 = +++) | 306 (ALVNVQIPL; listed as Homo sapiens) [compound 306]
43 | “+++” (≧50 = +++) | 307 (ALPVSLPQI; listed as Homo sapiens) [compound 307]
44 | “+++” (≧50 = +++) | 308 (SQYSGQLHEV; listed as Homo sapiens) [compound 308]
45 | “+++” (≧50 = +++) | 309 (GLFDGVPTTA; listed as Homo sapiens) [compound 309]
46 | “++++” (≧75% = ++++) | 310 (FLVDTPLARA; listed as Homo sapiens) [compound 310]
47 | “+++” (≧50 = +++) | 311 (RLYTGMHTV; listed as Homo sapiens) [compound 311]
48 | “+++” (≧50 = +++) | 312 (IISDLTIAL; listed as Homo sapiens) [compound 312]
49 | “+++” (≧50 = +++) | 313 (VLFDDELLMV; listed as Homo sapiens) [compound 313]
50 | “+++” (≧50 = +++) | 314 (ALIAEGIALV; listed as Homo sapiens) [compound 314]
51 | “+++” (≧50 = +++) | 315 (YLQDVVEQA; listed as Homo sapiens) [compound 315]
52 | “+++” (≧50 = +++) | 316 (ILLERLWYV; listed as Homo sapiens) [compound 316]

Row | Peptide exchange | Substance
53 | “+++” (≧50 = +++) | 317 (SLAALVVHV; listed as Homo sapiens) [compound 317]
54 | “++” (≧20% = ++) | 318 (GLINTGVLSV; listed as Homo sapiens) [compound 318]
55 | “++++” (≧75% = ++++) | 320 (KMFEFVEPLL; listed as Homo sapiens) [compound 320]
56 | “++++” (≧75% = ++++) | 321 (GLFEDVTQPGILL; listed as Homo sapiens) [compound 321]
57 | “+++” (≧50 = +++) | 322 (TLMTSLPAL; listed as Homo sapiens) [compound 322]
58 | “+++” (≧50 = +++) | 324 (FLYDEIEAEV; listed as Homo sapiens) [compound 324]
59 | “+++” (≧50 = +++) | 325 (FIMPATVADATAV; listed as Homo sapiens) [compound 325]
60 | “+++” (≧50 = +++) | 326 (FLPEALDFV; listed as Homo sapiens) [compound 326]
61 | “+++” (≧50 = +++) | 327 (GLAPFTEGISFV; listed as Homo sapiens) [compound 327]
62 | “+++” (≧50 = +++) | 328 (ALNDQVFEI; listed as Homo sapiens) [compound 328]
63 | “++++” (≧75% = ++++) | 329 (FLVTLNNVEV; listed as Homo sapiens) [compound 329]
64 | “+++” (≧50 = +++) | 330 (QLALKVEGV; listed as Homo sapiens) [compound 330]
65 | “+++” (≧50 = +++) | 331 (KVDTVWVNV; listed as Homo sapiens) [compound 331]
66 | “+++” (≧50 = +++) | 332 (YLISELEAA; listed as Homo sapiens) [compound 332]
67 | “++” (≧20% = ++) | 333 (FLPDANSSV; listed as Homo sapiens) [compound 333]
68 | “+++” (≧50 = +++) | 334 (TLTKVLVAL; listed as Homo sapiens) [compound 334]
69 | “+++” (≧50 = +++) | 335 (YSLSSVVTV; listed as Homo sapiens) [compound 335]
70 | “+++” (≧50 = +++) | 336 (ILLTAIVQV; listed as Homo sapiens) [compound 336]
71 | “++++” (≧75% = ++++) | 337 (HLLSELEAAPYL; listed as Homo sapiens) [compound 337]
72 | “++++” (≧75% = ++++) | 339 (GLWEIENNPTVKA; listed as Homo sapiens) [compound 339]
73 | “++++” (≧75% = ++++) | 340 (ALLSMTFPL; listed as Homo sapiens) [compound 340]
74 | “+++” (≧50 = +++) | 341 (SQIALNEKLVNL; listed as Homo sapiens) [compound 341]
75 | “+++” (≧50 = +++) | 342 (HIYDKVMTV; listed as Homo sapiens) [compound 342]
76 | “+++” (≧50 = +++) | 343 (SLLEVNEESTV; listed as Homo sapiens) [compound 343]
77 | “+++” (≧50 = +++) | 344 (YLQDQHLLLTV; listed as Homo sapiens) [compound 344]
78 | “+++” (≧50 = +++) | 345 (VIWKALIHL; listed as Homo sapiens) [compound 345]
